In US20110104713A1, “PRODUCTS AND PROCESSES FOR MODULATING PEPTIDE-PEPTIDE BINDING DOMAIN INTERACTIONS” (priority 2002, published 2011):

Experiments:
[1] = target: T1, Plk-1 PBD (residues 326-603) (Homo sapiens, UniProt P53350); test: Isothermal titration calorimetry of peptides with Plk-1 PBD; assay type: binding; settings: ITC; no detectable binding for a Plk1 PBD concentration of at least 150 μM
T1 construct: sample cell containing 15 μM Plk-1 PBD (residues 326-603); GST (N, cleaved yes); made in house; host or cells: E. coli BL21
Method: For deletion mapping of the PBD, C-terminal fragments of Plk-1 were generated by PCR and cloned into the EcoRI and XhoI sites of pcDNA3.1 (Invitrogen). For production of recombinant PBD as a GST fusion in bacteria, the 326-603 fragment of Plk-1 was ligated into the EcoRI and XhoI sites of pGEX-4T (Pharmacia), transformed into BL21, and induced in late log-phase cells at 37° C. for 3.5 hours in the presence of 0.4 mM IPTG. For measurements of peptide binding affinity by ITC, GST-Plk-1 (326-603) was isolated from bacterial lysates using glutathione agarose, cleaved from GST using thrombin (10 U/mL), and purified by anion exchange chromatography (Q Sepharose HP, Pharmacia).
Peptides were synthesized by solid phase technique with two C-terminal lysines to enhance solubility, purified by reverse phase HPLC following deprotection, and confirmed by MALDI-TOF 9 Matrix-assisted laser desorption/ionisation-time of flight mass spectrometry. Some peptides contained an additional tyrosine residue to facilitate concentration determination by optical absorbance. calorimetry measurements were performed using a VP-ITC microcalorimeter (MicroCal Inc., Studio City, Calif.). Experiments involved 10 μL injections of peptide solutions (150 μM-180 μM) into a sample cell containing 15 μM Plk-1 PBD (residues 326-603) in 50 mM Tris/HCl (pH 8.1), 200 mM NaCl, 2 mM TCEP. Thirty injections were performed with a spacing of 240 s and a reference power of 25 μCal/s. Binding isotherms were plotted and analyzed using Origin Software (MicroCal Inc. Studio City, Calif.).
Peptides were synthesized by solid phase technique with two C-terminal lysines to enhance solubility. Some peptides contained an additional tyrosine residue to facilitate concentration determination by optical absorbance. Isothermal titration calorimetry was performed using a VP-ITC microcalorimeter (MicroCal Inc. Studio City, Calif.) by titration of 15-40 μM solutions of PBD proteins with 30×10 μl injections of […] peptide in a starting volume of 1.4-2.0 ml. Binding isotherms were plotted and analyzed using Origin Software (MicroCal Inc. Studio City, Calif.). Binding of in vitro translated Plk1 PBD (wild type and mutants) to bead-immobilized pTP and TP peptide libraries was performed as described previously (Elia et al., Science 299:1228-1231, 2003). pTP and TP indicate the peptide libraries biotin-Z-Gly-Z-Gly-Gly-Ala-X-X-B-X-pThr-Pro-X-X-X-X-Ala-Lys-Lys-Lys SEQ ID NO: 30 biotin-Z-Gly-Z-Gly-Gly-Ala-X-X-B-X-Thr-Pro-X-X-X-X-Ala-Lys-Lys-Lys SEQ ID NO: 31, respectively, where pThr is phosphothreonine, Z is aminohexanoic acid, X denotes all amino acids except Cys, and B is a biased mixture of the amino acids P, L, I, V, F, M, W.

GST-Plk1 (full-length) = target: T2, GST-Plk1 (full-length) (Homo sapiens, UniProt P53350); test: Plk1 kinase assay (32P-incorporation into casein) with peptide activation; assay type: biochemical; settings: 250 μM peptide pre-incubated 5 minutes at room temperature; three independent experiments
T2 construct: SF9 cells infected with baculoviral GST-Plk1 (full-length) were lysed; made in house; host or cells: SF9 insect cells (baculovirus)
Method: SF9 cells infected with baculoviral GST-Plk1 (full-length) were lysed in 20 mM Hepes/KOH (pH 7.5), 135 mM NaCl, 1% NP40, 5 mM EGTA, 5 μM 13-mercaptoethanol, 35 mM NaF, 0.5 mM Na3VO4, 20 mM β-glycerolphosphate, 3 μM microcystin, 1 μM okadaic acid, 10 μg/mL pepstatin, 10 μg/mL leupeptin, and 10 μg/mL aprotinin. Lysates were incubated for 2 hours at 4° C. with glutathione beads, which were subsequently washed five times with 20 mM Hepes/KOH (pH 7.5), 415 mM NaCl, 0.1% CHAPS, 5 mM EGTA, 5 μM β-mercaptoethanol, 35 mM NaF, and 0.5 mM Na3VO4 at 4° C. Bound proteins were eluted with a buffer containing 30 mM glutathione, 50 mM Hepes/KOH (pH 8.0), 25 mM NaCl, 2 mM MgCl2, 1 mM EGTA, and 5 μM β-mercaptoethanol and dialyzed against 10 mM Hepes, 10 mM NaCl, 1 mM EGTA, 1 mM DTT for 3 hours at 4° C. Kinase reactions were performed in 20 mM Hepes/KOH (pH7.5), 15 mM KCl, 10 mM MgCl2, 1 mM EGTA, 100 µM ATP, 5 μCi γ-[^32P]-ATP, 1 mM DTT, and […] casein for 15 minutes at 30° C. Reaction aliquots were removed at various time points, added to sample buffer, and boiled to arrest phosphorylation. ^32P-incorporation into casein was determined by SDS-PAGE electrophoresis, autoradiography, and densitometry using ImageQuant software (Molecular Dynamics). […]

T2 sequence (P53350 whole entry): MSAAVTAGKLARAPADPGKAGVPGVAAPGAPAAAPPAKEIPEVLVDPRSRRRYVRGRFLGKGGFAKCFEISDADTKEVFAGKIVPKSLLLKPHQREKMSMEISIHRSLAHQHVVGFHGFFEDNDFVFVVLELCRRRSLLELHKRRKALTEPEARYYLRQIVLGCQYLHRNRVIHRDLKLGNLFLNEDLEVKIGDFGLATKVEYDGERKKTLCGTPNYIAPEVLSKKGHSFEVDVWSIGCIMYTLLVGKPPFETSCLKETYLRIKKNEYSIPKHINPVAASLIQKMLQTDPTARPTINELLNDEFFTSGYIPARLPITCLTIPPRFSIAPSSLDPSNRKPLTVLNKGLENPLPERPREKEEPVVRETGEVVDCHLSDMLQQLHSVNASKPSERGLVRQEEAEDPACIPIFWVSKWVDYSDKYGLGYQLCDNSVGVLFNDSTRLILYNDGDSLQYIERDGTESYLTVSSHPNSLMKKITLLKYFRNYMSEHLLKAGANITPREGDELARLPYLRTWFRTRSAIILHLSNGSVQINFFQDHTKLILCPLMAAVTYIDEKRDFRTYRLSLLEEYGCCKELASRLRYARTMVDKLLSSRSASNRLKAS
T1 sequence (P53350 326-603): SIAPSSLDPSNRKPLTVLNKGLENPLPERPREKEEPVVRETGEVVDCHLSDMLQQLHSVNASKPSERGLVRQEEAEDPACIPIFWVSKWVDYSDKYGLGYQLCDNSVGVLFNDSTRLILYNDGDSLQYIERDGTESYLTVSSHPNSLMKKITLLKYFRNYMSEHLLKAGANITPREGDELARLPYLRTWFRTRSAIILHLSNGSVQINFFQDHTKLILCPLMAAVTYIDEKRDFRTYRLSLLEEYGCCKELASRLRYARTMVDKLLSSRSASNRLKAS

peptide binding to Plk-1 PBD by ITC (in words) [1]: complete loss of binding
enhancement of Plk1 kinase activity (rate of casein phosphorylation), factor (GST-Plk1 (full-length)): had no effect
Substance: MAGPMQ-S-T-P-LNGAKK (MAGPMQSTPLNGAKK) [PoloBoxtide-8T]
